From patent US5981229

Target: PlpA-PhoA fusion protein of strain SPRU98 (Streptococcus pneumoniae; E. coli)

Substance: DsbA (from UniProt P0AEG4) (enzyme)
- alkaline phosphatase activity of SPRU98 whole bacteria (activity units per mg of total protein): 138
